B1: U3 small nucleolar RNA-associated protein 14 homolog C (Homo sapiens), Q5TAP6 (parent)
chain: MNVNQVAENLALSHQEELVDLPKNYPLSENEDEGDSDGERKHQKLLEAIISLDGKNRRKLAERSEASLKVSEFSVSSEGSGEKLGLADLLEPVKTSSSLATVKKQLNRVKSKKVVELPLNKEKIEQIHREVAFSKTSQVLSKWDPIILKNQQAEQLVFPLGKEQPAIAPIEHALSGWKARTPLEQEIFNLLHKNKQPVTDPLLTPMEKASLQAMSLEEAKMHRAELQRARALQSYYEAKARKEKKIKSKKYHKVVKKGKAKKALKEFEQLQKVNPTVALEEMEKIENARMMERMSLKHQNSGKWAKSKAIMAKYDLEARQAMQEQLAKNKELTQKLQVASESEEEEGGTEVEELLVPHVANEVQMNVDGPNPWMFRSCTSDTKEAATQEDPEQVPELAAHEVSASEAEERPVAEEEILLREFEERQSLRKRSELNQDAEPASSQETKDSSSQEVLSELRALSQKLKEKHQSRKQKASSEGTVPQVQREEPAPEEAEPLLLQRSERVQTLEELEELGKEDCFQNKELPRPVLEGQQSERTPNNRPDAPKEKKEKEQLINLQNFLTTQSPSVRSLAVPTIIEELEDEEERDQRQMIKEAFAGDDVIRDFLKEKREAVEASKPKDVDLTLPGWGEWGGVGLKPSAKKRRQFLIKAPEGPPRKDKNLPNVIISEKRNIHAAAHQVQVLPYPFTHHRQFERTIQTPIGSTWNTQRAFQKLTTPKVVTKPGHIIKPIKAEDVGYQSSSRSDLPVIQRNPKRITTRHNKEEKL
partner: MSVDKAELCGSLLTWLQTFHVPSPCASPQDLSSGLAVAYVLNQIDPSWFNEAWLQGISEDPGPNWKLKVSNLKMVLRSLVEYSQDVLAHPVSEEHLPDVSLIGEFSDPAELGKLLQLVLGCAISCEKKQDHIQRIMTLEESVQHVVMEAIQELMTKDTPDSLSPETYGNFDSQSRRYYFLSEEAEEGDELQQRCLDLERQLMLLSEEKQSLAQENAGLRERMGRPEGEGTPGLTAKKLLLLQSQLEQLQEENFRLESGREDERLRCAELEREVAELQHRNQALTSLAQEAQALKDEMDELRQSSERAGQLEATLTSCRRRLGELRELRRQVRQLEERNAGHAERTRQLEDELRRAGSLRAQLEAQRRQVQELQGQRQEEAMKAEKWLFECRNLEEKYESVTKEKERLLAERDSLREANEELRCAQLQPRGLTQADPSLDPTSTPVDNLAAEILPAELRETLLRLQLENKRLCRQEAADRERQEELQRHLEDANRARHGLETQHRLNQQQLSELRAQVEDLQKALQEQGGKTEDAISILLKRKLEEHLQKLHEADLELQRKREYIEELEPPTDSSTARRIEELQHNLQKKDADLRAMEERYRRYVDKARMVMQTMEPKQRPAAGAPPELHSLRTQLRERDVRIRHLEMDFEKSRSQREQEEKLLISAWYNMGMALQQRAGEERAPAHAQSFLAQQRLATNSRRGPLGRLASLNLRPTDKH
B2: Cyclin-D1-binding protein 1 (Homo sapiens), O95273 (parent)
chain: MASATAPAAAVPTLASPLEQLRHLAEELRLLLPRVRVGEAQETTEEFNREMFWRRLNEAAVTVSREATTLTIVFSQLPLPSPQETQKFCEQVHAAIKAFIAVYYLLPKDQGITLRKLVRGATLDIVDGMAQLMEVLSVTPTQSPENNDLISYNSVWVACQQMPQIPRDNKAAALLMLTKNVDFVKDAHEEMEQAVEECDPYSGLLNDTEENNSDNHNHEDDVLGFPSNQDLYWSEDDQELIIPCLALVRASKACLKKIRMLVAENGKKDQVAQLDDIVDISDEISPSVDDLALSIYPPMCHLTVRINSAKLVSVLKKALEITKASHVTPQPEDSWIPLLINAIDHCMNRIKELTQSELEL
partner: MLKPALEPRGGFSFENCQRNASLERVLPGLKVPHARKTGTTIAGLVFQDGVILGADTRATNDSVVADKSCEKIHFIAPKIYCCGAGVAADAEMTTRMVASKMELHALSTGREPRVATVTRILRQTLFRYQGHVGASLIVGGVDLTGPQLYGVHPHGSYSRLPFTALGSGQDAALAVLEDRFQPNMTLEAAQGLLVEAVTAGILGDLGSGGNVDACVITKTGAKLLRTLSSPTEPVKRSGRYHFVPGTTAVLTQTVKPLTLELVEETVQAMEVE
B3: Keratin-associated protein 12-2 (Homo sapiens), P59991 (parent)
chain: MCHTSCSSGCQPACCAPSPCQPACCVPSSCQASCCVPVGCQSSVCVPVSFKPAVCLPVSCQSSVCVPMSFKSAVCVPVSCQSSVCVPVSCRPIVCAAPSCQSSLCVPVSCRPVVYAAPSCQSSGCCQPSCTSVLCRPISYSISSCC
partner: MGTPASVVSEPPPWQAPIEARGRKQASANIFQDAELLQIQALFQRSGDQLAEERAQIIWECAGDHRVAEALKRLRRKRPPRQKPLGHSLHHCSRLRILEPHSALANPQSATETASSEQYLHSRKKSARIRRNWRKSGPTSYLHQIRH
B4: Protein LDOC1 (Homo sapiens), O95751 (parent)
chain: MVDELVLLLHALLMRHRALSIENSQLMEQLRLLVCERASLLRQVRPPSCPVPFPETFNGESSRLPEFIVQTASYMLVNENRFCNDAMKVAFLISLLTGEAEEWVVPYIEMDSPILGDYRAFLDEMKQCFGWDDDEDDDDEEEEDDY
partner: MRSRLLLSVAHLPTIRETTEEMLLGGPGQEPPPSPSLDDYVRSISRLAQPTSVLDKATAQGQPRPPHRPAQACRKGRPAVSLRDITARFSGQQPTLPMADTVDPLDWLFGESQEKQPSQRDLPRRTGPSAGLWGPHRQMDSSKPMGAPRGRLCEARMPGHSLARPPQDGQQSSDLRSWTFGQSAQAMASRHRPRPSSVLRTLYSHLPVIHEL
B5: Hyaluronan mediated motility receptor (Homo sapiens), O75330 (parent)
chain: MSFPKAPLKRFNDPSGCAPSPGAYDVKTLEVLKGPVSFQKSQRFKQQKESKQNLNVDKDTTLPASARKVKSSESKESQKNDKDLKILEKEIRVLLQERGAQDRRIQDLETELEKMEARLNAALREKTSLSANNATLEKQLIELTRTNELLKSKFSENGNQKNLRILSLELMKLRNKRETKMRGMMAKQEGMEMKLQVTQRSLEESQGKIAQLEGKLVSIEKEKIDEKSETEKLLEYIEEISCASDQVEKYKLDIAQLEENLKEKNDEILSLKQSLEENIVILSKQVEDLNVKCQLLEKEKEDHVNRNREHNENLNAEMQNLKQKFILEQQEREKLQQKELQIDSLLQQEKELSSSLHQKLCSFQEEMVKEKNLFEEELKQTLDELDKLQQKEEQAERLVKQLEEEAKSRAEELKLLEEKLKGKEAELEKSSAAHTQATLLLQEKYDSMVQSLEDVTAQFESYKALTASEIEDLKLENSSLQEKAAKAGKNAEDVQHQILATESSNQEYVRMLLDLQTKSALKETEIKEITVSFLQKITDLQNQLKQQEEDFRKQLEDEEGRKAEKENTTAELTEEINKWRLLYEELYNKTKPFQLQLDAFEVEKQALLNEHGAAQEQLNKIRDSYAKLLGHQNLKQKIKHVVKLKDENSQLKSEVSKLRCQLAKKKQSETKLQEELNKVLGIKHFDPSKAFHHESKENFALKTPLKEGNTNCYRAPMECQESWK
B6: Coiled-coil domain-containing protein 33 (Homo sapiens), Q8N5R6-5 (parent)
chain: MGEPGPPSPPAPKAAPGLIDSFSEMNNYRRAMQKMAEDILSLRRQASILEGENRILRSRLAQQEEEEGQGKASEAQNTVSMKQKLLLSELDMKKLRDRVQHLQNELIRKNDREKELLLLYQAQQPQAALLKQYQGKLQKMKALEETVRHQEKVIEKMERVLEDRLQDRSKPPPLNRQQGKPYTGFPMLSASGLPLGSMGENLPVELYSVLLAENAKLRTELDKNRHQQAPIILQQQALPVDPGELGAGGDLTERLQETHGPGHSECTETLPAQDLLSGTSDKFNLLAKLEHAQSRILSLESQLEDSARRWGREKQDLATRLQEQEKGFRHPSNSIIIEQPVSDPPGVAPRGSGGGAGSHRTPKVTGP
partner: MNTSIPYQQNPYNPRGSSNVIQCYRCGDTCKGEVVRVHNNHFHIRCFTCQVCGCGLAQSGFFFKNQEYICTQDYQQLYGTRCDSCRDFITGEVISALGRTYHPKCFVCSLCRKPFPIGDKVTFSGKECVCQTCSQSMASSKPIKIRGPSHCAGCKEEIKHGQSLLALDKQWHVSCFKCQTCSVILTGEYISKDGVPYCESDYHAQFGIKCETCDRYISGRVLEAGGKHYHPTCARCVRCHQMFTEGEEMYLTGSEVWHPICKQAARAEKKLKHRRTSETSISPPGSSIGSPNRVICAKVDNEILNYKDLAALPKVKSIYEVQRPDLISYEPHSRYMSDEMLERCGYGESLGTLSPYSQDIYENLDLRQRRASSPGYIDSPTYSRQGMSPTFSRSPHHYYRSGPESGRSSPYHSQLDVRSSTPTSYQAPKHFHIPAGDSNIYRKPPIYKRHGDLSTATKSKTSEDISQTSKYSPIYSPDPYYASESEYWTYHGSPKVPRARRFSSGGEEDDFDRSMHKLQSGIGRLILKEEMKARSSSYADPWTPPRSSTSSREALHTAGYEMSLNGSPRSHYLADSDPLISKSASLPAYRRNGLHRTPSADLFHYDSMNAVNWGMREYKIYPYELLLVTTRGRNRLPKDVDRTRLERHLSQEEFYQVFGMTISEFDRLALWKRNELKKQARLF

Variants of: B1
Conditions: with hook2_human HOOK2, Q96ED9

| effect of a mutation on the interaction | Variant |
| --- | --- |
| with no effect | A652T |
| with no effect | V109D |
| with no effect | V570M |

Variants of: B2
Conditions: with psb10_human PSMB10, P40306

| effect of a mutation on the interaction | Variant |
| --- | --- |
| disrupting interaction strength | I277T |

Variants of: B3
Conditions: with avpi1_human AVPI1, Q5T686

| effect of a mutation on the interaction | Variant |
| --- | --- |
| with no effect | S143P |
| with no effect | A16T |

Variants of: B4
Conditions: with depp1_human DEPP1, Q9NTK1

| effect of a mutation on the interaction | Variant |
| --- | --- |
| disrupting interaction strength | L12H |

Variants of: B5
Conditions: with morn4_human MORN4, Q8NDC4
Chain of morn4_human MORN4, Q8NDC4 (Q8NDC4 whole entry): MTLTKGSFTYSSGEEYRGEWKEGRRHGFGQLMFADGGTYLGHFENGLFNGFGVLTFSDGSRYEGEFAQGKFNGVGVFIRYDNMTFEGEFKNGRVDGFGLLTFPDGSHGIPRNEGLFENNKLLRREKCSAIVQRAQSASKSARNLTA

| effect of a mutation on the interaction | Variant |
| --- | --- |
| with no effect | S468G |
| with no effect | V368A |

Variants of: B6
Conditions: with ablm3_human ABLIM3, O94929

| effect of a mutation on the interaction | Variant |
| --- | --- |
| with no effect | M25V |
| with no effect | G196R |
| disrupting interaction strength | P203L |

Source: IntAct's records for PubMed 31515488
